Results published in paper PMC9034101.

Assays:
[1] = molecular target: Cy5 N-terminal-labeled WWP2 (human) (UniProt O00308); test: MST; 10 nM N-terminal Cy5-labeled WWP2, NDP52 (up to 48 uM) or OPTN (up to 60 uM) in two-fold serial dilution; 25 mM Hepes pH 7.8, 250 mM NaCl, 1 mM TCEP, 0.5 mg/ml BSA, 0.05% Tween-20; room temperature; apparent KD, quadratic model
[2] = molecular target: PTEN (Homo sapiens) (UniProt P60484); settings: cited from earlier work
PTEN (Homo sapiens), sequence (P60484 2-403): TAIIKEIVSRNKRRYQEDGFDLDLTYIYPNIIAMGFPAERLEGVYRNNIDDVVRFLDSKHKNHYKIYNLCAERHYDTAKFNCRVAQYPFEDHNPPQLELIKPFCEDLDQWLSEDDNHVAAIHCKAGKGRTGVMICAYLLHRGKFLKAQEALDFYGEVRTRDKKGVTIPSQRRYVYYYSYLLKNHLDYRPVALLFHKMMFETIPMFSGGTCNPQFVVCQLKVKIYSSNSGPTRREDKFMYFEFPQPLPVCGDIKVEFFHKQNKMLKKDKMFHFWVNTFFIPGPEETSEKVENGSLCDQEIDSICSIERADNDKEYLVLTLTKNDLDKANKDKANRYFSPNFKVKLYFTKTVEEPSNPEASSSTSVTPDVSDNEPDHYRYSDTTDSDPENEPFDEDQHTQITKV

Optineurin, sequence (Q96CV9 whole entry): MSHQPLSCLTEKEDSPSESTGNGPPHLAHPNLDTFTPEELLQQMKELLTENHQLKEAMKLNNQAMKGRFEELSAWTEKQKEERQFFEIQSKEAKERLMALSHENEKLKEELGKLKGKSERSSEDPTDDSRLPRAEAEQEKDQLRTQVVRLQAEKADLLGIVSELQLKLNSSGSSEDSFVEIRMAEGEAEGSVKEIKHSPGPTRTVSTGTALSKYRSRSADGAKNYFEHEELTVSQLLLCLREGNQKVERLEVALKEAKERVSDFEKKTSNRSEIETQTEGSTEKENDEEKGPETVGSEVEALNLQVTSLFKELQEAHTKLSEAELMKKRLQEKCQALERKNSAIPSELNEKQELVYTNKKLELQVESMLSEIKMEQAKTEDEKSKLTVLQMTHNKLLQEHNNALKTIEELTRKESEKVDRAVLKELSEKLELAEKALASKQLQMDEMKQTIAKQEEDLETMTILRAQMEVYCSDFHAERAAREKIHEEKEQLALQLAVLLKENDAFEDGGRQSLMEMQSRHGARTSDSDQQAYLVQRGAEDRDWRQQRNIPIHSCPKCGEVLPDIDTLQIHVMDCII
WWP2, sequence (O00308 whole entry): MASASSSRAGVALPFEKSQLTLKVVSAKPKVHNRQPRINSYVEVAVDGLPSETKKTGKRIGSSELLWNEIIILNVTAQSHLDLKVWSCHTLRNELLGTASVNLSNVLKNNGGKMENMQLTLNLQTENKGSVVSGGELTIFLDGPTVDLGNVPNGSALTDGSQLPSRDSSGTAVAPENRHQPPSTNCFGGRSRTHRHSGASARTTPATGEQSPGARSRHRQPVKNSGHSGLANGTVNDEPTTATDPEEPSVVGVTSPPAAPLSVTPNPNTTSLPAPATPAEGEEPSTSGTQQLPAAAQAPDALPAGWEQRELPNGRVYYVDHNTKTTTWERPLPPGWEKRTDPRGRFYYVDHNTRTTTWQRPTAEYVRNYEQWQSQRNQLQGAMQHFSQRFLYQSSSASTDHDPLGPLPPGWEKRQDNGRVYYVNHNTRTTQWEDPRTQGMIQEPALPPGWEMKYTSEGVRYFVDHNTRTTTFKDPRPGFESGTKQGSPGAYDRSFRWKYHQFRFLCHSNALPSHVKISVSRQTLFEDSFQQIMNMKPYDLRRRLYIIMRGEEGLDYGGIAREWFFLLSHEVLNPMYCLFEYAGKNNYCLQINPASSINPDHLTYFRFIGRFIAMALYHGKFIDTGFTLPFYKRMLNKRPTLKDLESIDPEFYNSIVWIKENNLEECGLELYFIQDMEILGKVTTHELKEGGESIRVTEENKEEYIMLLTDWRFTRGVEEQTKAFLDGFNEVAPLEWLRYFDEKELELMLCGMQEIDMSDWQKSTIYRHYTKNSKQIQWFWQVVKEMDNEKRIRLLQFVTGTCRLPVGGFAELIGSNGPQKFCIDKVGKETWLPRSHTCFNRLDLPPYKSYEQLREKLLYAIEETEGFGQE

| Kd [1] [µM] | Substance | Kd [2] [µM] |
| --- | --- | --- |
| 39 | Optineurin (from UniProt Q96CV9 1-577) (natural protein) | – |
| – | WWP2 (from UniProt O00308) | 20 |
